Experiments:
[1] = target: T1, serotonin 5HT1A receptor (Homo sapiens, UniProt P08908); assay: CPRG assay, MMY11 cells expressing 5-HT1A receptor plus Gα subunit; assay type: cell-based; design: key: weak activation insufficient to carry out curve-fitting was detected; NC: no coupling was detected
T1 construct: expressed in transfected cells; host or cells: Saccharomyces cerevisiae strains MMY9 and MMY11, plasmid pDT-PGK-5-HT1A
T1 sequence (P08908 1-422): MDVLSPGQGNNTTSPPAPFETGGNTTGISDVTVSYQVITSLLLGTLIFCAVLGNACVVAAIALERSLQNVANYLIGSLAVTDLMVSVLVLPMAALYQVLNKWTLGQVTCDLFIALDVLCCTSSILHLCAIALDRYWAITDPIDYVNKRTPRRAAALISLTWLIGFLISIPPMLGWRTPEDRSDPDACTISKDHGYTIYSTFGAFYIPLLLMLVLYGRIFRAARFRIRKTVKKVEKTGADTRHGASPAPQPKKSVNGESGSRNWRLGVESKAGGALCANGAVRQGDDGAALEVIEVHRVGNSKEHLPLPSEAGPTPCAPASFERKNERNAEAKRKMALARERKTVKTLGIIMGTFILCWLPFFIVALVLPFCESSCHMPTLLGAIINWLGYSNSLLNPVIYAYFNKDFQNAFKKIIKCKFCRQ
Procedure: (§1) Assay for combined FUS1-lacZ and FUS1-HIS3 Expression. In vivo assays of reporter gene induction (CPRG assays) were carried out by suspending cells to 0.02 OD600 in 200 μl SC-glucose (2%) lacking tryptophan, uracil and histidine. This medium was supplemented with agonists, and additionally 10 mM 3-aminotriazole and the β-galactosidase (lacZ) substrate chlorophenolred-β-D-galactopyranoside (CPRG; Boehringer) to a concentration of 0.1 mg/ml. To visualise the colour change reaction, the medium was buffered to pH 7 with 0.1 M sodium phosphate. The assay was conducted in a 96-well microtitre plate format. Plates were incubated for 24 hours without agitation, and absorbance at 570 nm was determined using a Victor microtitre plate reader (Wallac). EC50 values (+/−standard error) were estimated by curve-fitting, using the Robosage software package.
(§2) MMY11 was used in an experiment in which cells were transformed with pairs of plasmids as before, one to express a Gα subunit and the other a receptor expression construct. […] Where pheromone response pathway activation was detected, the agonist concentration required to yield a half-maximal response (EC50+/−standard error; all values in nM except where otherwise indicated) was determined by curve-fitting, and is shown in Table 4A. Where no coupling was detected, this is also indicated (NC).

[2] = target: T2, serotonin 5HT1D receptor (Homo sapiens, UniProt P28221); assay: CPRG assay, MMY11 cells expressing 5-HT1D receptor plus Gα subunit; assay type: cell-based; design: key: weak activation insufficient to carry out curve-fitting was detected; NC: no coupling was detected
T2 construct: expressed in transfected cells; host or cells: Saccharomyces cerevisiae strain MMY11, plasmid pDT-PGK-5-HT1D
Procedure: as §1, §2

T2 sequence (P28221 whole entry): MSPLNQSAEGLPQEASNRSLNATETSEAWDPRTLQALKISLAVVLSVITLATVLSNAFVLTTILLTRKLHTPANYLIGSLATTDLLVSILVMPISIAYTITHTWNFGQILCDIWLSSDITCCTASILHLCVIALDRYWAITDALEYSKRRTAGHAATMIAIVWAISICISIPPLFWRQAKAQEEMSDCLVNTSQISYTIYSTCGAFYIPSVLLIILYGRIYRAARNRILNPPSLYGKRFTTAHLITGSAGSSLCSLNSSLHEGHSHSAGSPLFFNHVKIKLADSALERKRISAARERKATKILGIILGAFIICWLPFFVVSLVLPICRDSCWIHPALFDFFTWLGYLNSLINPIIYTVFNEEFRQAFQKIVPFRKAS

B1: Gpa1p: endogenous yeast Gα subunit, product of the GPA1 gene (protein, UniProt P08539 2-472, looked up)
Guanine nucleotide-binding …: GCTVSTQTIGDESDPFLQNKRANDVIEQSLQLEKQRDKNEIKLLLLGAGESGKSTVLKQLKLLHQGGFSHQERLQYAQVIWADAIQSMKILIIQARKLGIQLDCDDPINNKDLFACKRILLKAKALDYINASVAGGSDFLNDYVLKYSERYETRRRVQSTGRAKAAFDEDGNISNVKSDTDRDAETVTQNEDADRNNSSRINLQDICKDLNQEGDDQMFVRKTSREIQGQNRRNLIHEDIAKAIKQLWNNDKGIKQCFARSNEFQLEGSAAYYFDNIEKFASPNYVCTDEDILKGRIKTTGITETEFNIGSSKFKVLDAGGQRSERKKWIHCFEGITAVLFVLAMSEYDQMLFEDERVNRMHESIMLFDTLLNSKWFKDTPFILFLNKIDLFEEKVKSMPIRKYFPDYQGRVGDAEAGLKYFEKIFLSLNKTNKPIYVKRTCATDTQTMKFVLSAVTDLIIQQNLKKIGII
- coupling class where no EC50 could be fitted [1]: weak
- coupling class where no EC50 could be fitted [2]: NC
